According to publication PMC9313131 (2022):

B1: CDC37 (cell division cycle 37), wild type, full-length (natural protein)
chain: MVDYSVWDHIEVSDDEDETHPNIDTASLFRWRHQARVERMEQFQKEKEELDRGCRECKRKVAECQRKLKELEVAEGGKAELERLQAEAQQLRKEERSWEQKLEEMRKKEKSMPWNVDTLSKDGFSKSMVNTKPEKTEEDSEEVREQKHKTFVEKYEKQIKHFGMLRRWDDSQKYLSDNVHLVCEETANYLVIWCIDLEVEEKCALMEQVAHQTIVMQFILELAKSLKVDPRACFRQFFTKIKTADRQYMEGFNDELEAFKERVRGRAKLRIEKAMKEYEEEERKKRLGPGGLDPVEVYESLPEELQKCFDVKDVQMLQDAISKMDPTDAKYHMQRCIDSGLWVPNSKASEAKEGEEAGPGDPLLEAVPKTGDEKDVSV
B2: sBRAF, solubilized version of BRAF kinase domain (residues 423-723), V600 background (domain or fragment)
chain: QRERKSSSSSEDRNRMKTLGRRDSSDDWEIPDGQITVGQRIGSGSFGTVYKGKWHGDVAVKMLNVTAPTPQQLQAFKNEVGVLRKTRHVNILLFMGYSTKPQLAIVTQWCEGSSLYHHLHASETKFEMKKLIDIARQTARGMDYLHAKSIIHRDLKSNNIFLHEDNTVKIGDFGLATVKSRWSGSHQFEQLSGSILWMAPEVIRMQDSNPYSFQSDVYAFGIVLYELMTGQLPYSNINNRDQIIEMVGRGSLSPDLSKVRSNCPKRMKRLMAECLKKKRDERPSFPRILAEIEELARELSG

Tests used:
[1] = molecular target: sBRAF V600E (solubilized BRAF kinase domain, residues 423-723, V600E) (human, UniProt P15056 423-723, V600E); experiment: ITC
[2] = molecular target: B1; experiment: ITC

| Ka [1] [M⁻¹] | Ka [2] [M⁻¹] | Binder |
| --- | --- | --- |
| 2.44e+06 |  | B1 |
|  | 965000 | B2 |
